Results as given in US20230227576A1 (published 2023).

Biological target: carcinoembryonic antigen (CEA) (Homo sapiens (Human), UniProt P06731)
Experiment: cell-based or functional assay

B1: MFE23 CD28(IEV) truncated CoStAR (CAR)
chain: QVKLQQSGAELVRSGTSVKLSCTASGFNIKDSYMHWLRQGPEQGLEWIGWIDPENGDTEYAPKFQGKATFTTDTSSNTAYLQLSSLTSEDTAVYYCNEGTPTGPYYFDYWGQGTTVTVSSGGGGSGGGGSGGGGSENVLTQSPAIMSASPGEKVTITCSASSSVSYMHWFQQKPGTSPKLWIYSTSNLASGVPARFSGSGSGTSYSLTISRMEAEDAATYYCQQRSSYPLTFGAGTKLELKRIEVMYPPPYLDNEKSNGTIIHVKGKHLCPSPLFPGPSKPFWVLVVVGGVLACYSLLVTVAFIIFWVRSKRSRLLHSDYMNMTPRRPGPTRKHYQPYAPPRDFAAYRS
In the case of B1, the “IL-2 secretion (ELISA)” value is reported as 4.6 ng/mL.
